Source: patent publication US10738094B2, “Peptides and combination of peptides for use in immunotherapy against ovarian cancer and other cancers” (immatics biotechnologies GmbH, priority 2015, dated 2020)

Molecular target: HLA-A*02:01 (Homo sapiens, UniProt P04439, D140Y/D185E/D98H/E176V/E277Q/G131W/G231S/I119V/I121R/I166T/I218V/L300P/L318F/N151K/N90K/P208A/P217A/Q86G/Q94H/R138H/R169H/T345S)
Experiment: MHC binding assay (UV-ligand exchange, beta2m ELISA)
Conditions: binding to HLA-A*02:01 ranged by peptide exchange yield (UV-ligand exchange, β2m ELISA)
In short: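 UV-cleavable ligand in peptide-MHC complexes was exchanged for test peptide. Exchange yield came from an ELISA on streptavidin-captured complexes diluted 100 fold, detecting β2m with HRP anti-β2m (2 ug/ml, 1 h, 37° C.), TMB, A450.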

Row | Substance | Peptide exchange
1 | 401 (ILLDDTGLAYI; listed as Homo sapiens) [compound 401] | “+++” (≥50 = +++)
2 | 402 (VLFSGALLGL; listed as Homo sapiens) [compound 402] | “++” (≥20% = ++)
3 | 403 (KLYDRILRV; listed as Homo sapiens) [compound 403] | “++” (≥20% = ++)
4 | 405 (ALYDVFLEV; listed as Homo sapiens) [compound 405] | “++” (≥20% = ++)
5 | 407 (YLMDLINFL; listed as Homo sapiens) [compound 407] | “+++” (≥50 = +++)
6 | 408 (VLDDSIYLV; listed as Homo sapiens) [compound 408] | “++” (≥20% = ++)
7 | 409 (LLDAMNYHL; listed as Homo sapiens) [compound 409] | “++” (≥20% = ++)
8 | 412 (YLDDLNEGVYI; listed as Homo sapiens) [compound 412] | “++” (≥20% = ++)
9 | 426 (RLADKSVLV; listed as Homo sapiens) [compound 426] | “+++” (≥50 = +++)
10 | 427 (ALLPLSPYL; listed as Homo sapiens) [compound 427] | “+++” (≥50 = +++)
11 | 428 (KLGHTDILVGV; listed as Homo sapiens) [compound 428] | “++” (≥20% = ++)
12 | 429 (GLVNDLARV; listed as Homo sapiens) [compound 429] | “++” (≥20% = ++)
13 | 430 (HLYSSIEHLTT; listed as Homo sapiens) [compound 430] | “+++” (≥50 = +++)
14 | 431 (SLVNVVPKL; listed as Homo sapiens) [compound 431] | “++” (≥20% = ++)
15 | 432 (TLIEESAKV; listed as Homo sapiens) [compound 432] | “++” (≥20% = ++)
16 | 433 (AMLNEPWAV; listed as Homo sapiens) [compound 433] | “+++” (≥50 = +++)
17 | 434 (KVSNSGITRV; listed as Homo sapiens) [compound 434] | “++” (≥20% = ++)
18 | 436 (HLAEVSAEV; listed as Homo sapiens) [compound 436] | “+++” (≥50 = +++)
19 | 437 (SMAPGLVIQAV; listed as Homo sapiens) [compound 437] | “+++” (≥50 = +++)
20 | 438 (KLLPLAGLYL; listed as Homo sapiens) [compound 438] | “++++” (≥75% = ++++)
21 | 439 (YLLQEIYGI; listed as Homo sapiens) [compound 439] | “+++” (≥50 = +++)
22 | 440 (ALADGVTMQV; listed as Homo sapiens) [compound 440] | “++” (≥20% = ++)
23 | 441 (ALLENPKMEL; listed as Homo sapiens) [compound 441] | “+++” (≥50 = +++)
24 | 442 (GLLGGGGVLGV; listed as Homo sapiens) [compound 442] | “+++” (≥50 = +++)
25 | 444 (GLLRDEALAEV; listed as Homo sapiens) [compound 444] | “+++” (≥50 = +++)
26 | 446 (QLIPALAKV; listed as Homo sapiens) [compound 446] | “+++” (≥50 = +++)

Row | Substance | Peptide exchange
27 | 447 (QLVPALAKV; listed as Homo sapiens) [compound 447] | “++” (≥20% = ++)
28 | 448 (NLLETKLQL; listed as Homo sapiens) [compound 448] | “+++” (≥50 = +++)
29 | 449 (KLAEGLDIQL; listed as Homo sapiens) [compound 449] | “+++” (≥50 = +++)
30 | 450 (FMIDASVHPTL; listed as Homo sapiens) [compound 450] | “+++” (≥50 = +++)
31 | 451 (LLLLDTVTMQV; listed as Homo sapiens) [compound 451] | “++” (≥20% = ++)
32 | 452 (ILLEHGADPNL; listed as Homo sapiens) [compound 452] | “+++” (≥50 = +++)
33 | 453 (KLLEATSAV; listed as Homo sapiens) [compound 453] | “++” (≥20% = ++)
34 | 454 (KLPPPPPQA; listed as Homo sapiens) [compound 454] | “+++” (≥50 = +++)
35 | 455 (SLLKEPQKVQL; listed as Homo sapiens) [compound 455] | “++” (≥20% = ++)
36 | 456 (LLIGHLERV; listed as Homo sapiens) [compound 456] | “+++” (≥50 = +++)
37 | 457 (SLLPGNLVEKV; listed as Homo sapiens) [compound 457] | “+++” (≥50 = +++)
38 | 458 (SLIDKLYNI; listed as Homo sapiens) [compound 458] | “++” (≥20% = ++)
39 | 459 (ALITEVVRL; listed as Homo sapiens) [compound 459] | “++” (≥20% = ++)
40 | 461 (VMFRTPLASV; listed as Homo sapiens) [compound 461] | “++” (≥20% = ++)
41 | 462 (KLAKQPETV; listed as Homo sapiens) [compound 462] | “+++” (≥50 = +++)
42 | 463 (SLVESHLSDQLTL; listed as Homo sapiens) [compound 463] | “+++” (≥50 = +++)
43 | 464 (ALNDCIYSV; listed as Homo sapiens) [compound 464] | “+++” (≥50 = +++)
44 | 465 (QLCDLNAEL; listed as Homo sapiens) [compound 465] | “+++” (≥50 = +++)
45 | 466 (VLIANLEKL; listed as Homo sapiens) [compound 466] | “++++” (≥75% = ++++)
46 | 467 (FLAKDFNFL; listed as Homo sapiens) [compound 467] | “+++” (≥50 = +++)
47 | 468 (YLRSVGDGETV; listed as Homo sapiens) [compound 468] | “+++” (≥50 = +++)
48 | 469 (YLASDEITTV; listed as Homo sapiens) [compound 469] | “+++” (≥50 = +++)
49 | 471 (YLYNNMIAKI; listed as Homo sapiens) [compound 471] | “+++” (≥50 = +++)
50 | 472 (KLLEVSDDPQV; listed as Homo sapiens) [compound 472] | “+++” (≥50 = +++)
51 | 473 (AMATESILHFA; listed as Homo sapiens) [compound 473] | “+++” (≥50 = +++)
52 | 474 (YLDPALELGPRNV; listed as Homo sapiens) [compound 474] | “+++” (≥50 = +++)

Row | Substance | Peptide exchange
53 | 475 (LLLNEEALAQI; listed as Homo sapiens) [compound 475] | “+++” (≥50 = +++)
54 | 476 (ALMERTGYSMV; listed as Homo sapiens) [compound 476] | “+++” (≥50 = +++)
55 | 477 (ALLPASGQIAL; listed as Homo sapiens) [compound 477] | “+++” (≥50 = +++)
56 | 478 (YLLHEKLNL; listed as Homo sapiens) [compound 478] | “+++” (≥50 = +++)
57 | 479 (SLFGNSGILENV; listed as Homo sapiens) [compound 479] | “+++” (≥50 = +++)
58 | 480 (ALLEDSCHYL; listed as Homo sapiens) [compound 480] | “+++” (≥50 = +++)
59 | 481 (GLIEDYEALL; listed as Homo sapiens) [compound 481] | “+++” (≥50 = +++)
60 | 484 (SLIEKVTQL; listed as Homo sapiens) [compound 484] | “+++” (≥50 = +++)
61 | 485 (NVPDSFNEV; listed as Homo sapiens) [compound 485] | “+++” (≥50 = +++)
62 | 486 (AVMESIQGV; listed as Homo sapiens) [compound 486] | “+++” (≥50 = +++)
63 | 487 (LLINSVFHV; listed as Homo sapiens) [compound 487] | “+++” (≥50 = +++)
64 | 488 (FLAEDPKVTL; listed as Homo sapiens) [compound 488] | “+++” (≥50 = +++)
65 | 490 (FLLQHVQEL; listed as Homo sapiens) [compound 490] | “+++” (≥50 = +++)
66 | 491 (GLNDRSDAV; listed as Homo sapiens) [compound 491] | “++” (≥20% = ++)
67 | 492 (SLFDGFADGLGV; listed as Homo sapiens) [compound 492] | “+++” (≥50 = +++)
68 | 493 (GLLGEKTQDLIGV; listed as Homo sapiens) [compound 493] | “+++” (≥50 = +++)
69 | 494 (ALQPEPIKV; listed as Homo sapiens) [compound 494] | “++” (≥20% = ++)
70 | 495 (FIFSEKPVFV; listed as Homo sapiens) [compound 495] | “+++” (≥50 = +++)
71 | 496 (FLVEKQPPQV; listed as Homo sapiens) [compound 496] | “+++” (≥50 = +++)
72 | 497 (GLLEKLTAI; listed as Homo sapiens) [compound 497] | “+++” (≥50 = +++)
73 | 498 (KLWTGGLDNTV; listed as Homo sapiens) [compound 498] | “+++” (≥50 = +++)
74 | 500 (SLMEDQVLQL; listed as Homo sapiens) [compound 500] | “+++” (≥50 = +++)
75 | 501 (LLDPNVKSIFV; listed as Homo sapiens) [compound 501] | “+++” (≥50 = +++)
76 | 502 (RLLAQVPGL; listed as Homo sapiens) [compound 502] | “+++” (≥50 = +++)
77 | 503 (SLNHFTHSV; listed as Homo sapiens) [compound 503] | “+++” (≥50 = +++)
78 | 504 (GLSDGNPSL; listed as Homo sapiens) [compound 504] | “++” (≥20% = ++)
